Results: article PMC4615246

Molecular target: T1, LacI-CFP-Nup50 (human), Q9UKX7
T1 chain: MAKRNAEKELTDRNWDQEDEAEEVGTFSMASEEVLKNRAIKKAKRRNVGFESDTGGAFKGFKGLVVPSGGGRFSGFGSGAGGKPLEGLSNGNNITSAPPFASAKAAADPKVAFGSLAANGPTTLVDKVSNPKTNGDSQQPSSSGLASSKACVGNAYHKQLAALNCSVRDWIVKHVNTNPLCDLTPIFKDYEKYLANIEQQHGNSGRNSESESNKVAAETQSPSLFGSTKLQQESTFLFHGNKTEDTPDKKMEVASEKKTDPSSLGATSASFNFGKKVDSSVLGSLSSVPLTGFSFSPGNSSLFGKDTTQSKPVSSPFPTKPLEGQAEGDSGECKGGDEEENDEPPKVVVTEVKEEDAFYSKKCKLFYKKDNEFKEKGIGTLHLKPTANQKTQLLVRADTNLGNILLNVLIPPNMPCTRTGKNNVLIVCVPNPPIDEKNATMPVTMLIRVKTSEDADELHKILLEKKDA
Assay: LacI/LacO array recruitment in cells
Settings: remark: other sources report otherwise

percent of transfected cells showing colocalization: 28%
B1: Nup93 (endogenous), Q8N1F7 1-819 (natural protein)
chain: MDTEGFGELLQQAEQLAAETEGISELPHVERNLQEIQQAGERLRSRTLTRTSQETADVKASVLLGSRGLDISHISQRLESLSAATTFEPLEPVKDTDIQGFLKNEKDNALLSAIEESRKRTFGMAEEYHRESMLVEWEQVKQRILHTLLASGEDALDFTQESEPSYISDVGPPGRSSLDNIEMAYARQIYIYNEKIVNGHLQPNLVDLCASVAELDDKSISDMWTMVKQMTDVLLTPATDALKNRSSVEVRMEFVRQALAYLEQSYKNYTLVTVFGNLHQAQLGGVPGTYQLVRSFLNIKLPAPLPGLQDGEVEGHPVWALIYYCMRCGDLLAASQVVNRAQHQLGEFKTWFQEYMNSKDRRLSPATENKLRLHYRRALRNNTDPYKRAVYCIIGRCDVTDNQSEVADKTEDYLWLKLNQVCFDDDGTSSPQDRLTLSQFQKQLLEDYGESHFTVNQQPFLYFQVLFLTAQFEAAVAFLFRMERLRCHAVHVALVLFELKLLLKSSGQSAQLLSHEPGDPPCLRRLNFVRLLMLYTRKFESTDPREALQYFYFLRDEKDSQGENMFLRCVSELVIESREFDMILGKLENDGSRKPGVIDKFTSDTKPIINKVASVAENKGLFEEAAKLYDLAKNADKVLELMNKLLSPVVPQISAPQSNKERLKNMALSIAERYRAQGISANKFVDSTFYLLLDLITFFDEYHSGHIDRAFDIIERLKLVPLNQESVEERVAAFRNFSDEIRHNLSEVLLATMNILFTQFKRLKGTSPSSSSRPQRVIEDRDSQLRSQARTLITFAGMIPYRTSGDTNARLVQMEVLMN
